The supplement of paper PMC12042874
± gives the uncertainty stated by the source.

Experiment: amyloid nucleation score (Sup35N fusion, yeast selection) (log enrichment); library NNK1; higher = more nucleation; inactive = no reads after selection
Summary of the method: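 Nucleation score: DiMSum log enrichment of output over input reads, centred on the mode score of non-aggregating sequences. Only sequences with at least 100 input reads were kept. Reads came from Illumina sequencing of plasmid inserts before and after 7 days of growth at 30°C without adenine and uracil, in psi-negative yeast expressing Sup35N fused to peptides of 20 random codons after 24 hours of induction with 100 μM copper sulfate.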
Substance NSSKAMKKQVHLLFFRK has an amyloid nucleation score of 0.699 ± 0.42. In the case of RGGRWLMATWMMPGNGCLAA, the amyloid nucleation score is reported as 0.708 ± 0.52. FDTGGVRRRCACVSLYGVDV showed an amyloid nucleation score of 0.027 ± 0.43. In the case of IMNLSRNRVGLRVYGI, the amyloid nucleation score is reported as -0.029 ± 0.41. With VRGPGDGFWLEDGTGSHSYR the amyloid nucleation score was -0.078 ± 0.42. Substance PWCSKQEGTRMWGMYGAPGG has an amyloid nucleation score of 0.162 ± 0.62. TEFHAKGPTWCELSYSFAIL showed an amyloid nucleation score of -0.195 ± 0.58. With ERGMEVLCNYENKGL the amyloid nucleation score was 0.918 ± 0.6. PSFMMFKSYTPQDFGMH showed an amyloid nucleation score of -0.318 ± 0.99. GYVDGSRGRGAPNGAMCRCF showed an amyloid nucleation score of 0.205 ± 0.76. Work on DMKNYVPVLLGNTMIMLWGL yielded an amyloid nucleation score of 3.08 ± 0.085. In the case of APRAAN, the amyloid nucleation score is reported as -0.126 ± 0.41. VWLWDLA gave an amyloid nucleation score of 1.25 ± 0.62. For PSWWVMEFTWIPQNGGLLSL, the amyloid nucleation score was 6.64 ± 0.082. KLYGTRFPQFSRSVNEYC gave an amyloid nucleation score of 0.111 ± 0.36. FHRNHRINNRMSMAYSC showed an amyloid nucleation score of 0.059 ± 0.9. For HCVLRFCNPG, the amyloid nucleation score was “inactive”. For RMYLGVLIRHWIDSFAFGMQ, the amyloid nucleation score was 0.193 ± 0.32. For MVWVKGEDCFVDQACLRGAV, the amyloid nucleation score was 1.03 ± 0.72. In the case of FFGFCSSVES, the amyloid nucleation score is reported as 0.662 ± 0.51. With LVVVGGKLNLTTWNAR the amyloid nucleation score was 0.829 ± 1. For NDDYHTLSQCACSFALRADG, the amyloid nucleation score was 1.08 ± 0.54. For YCLSYEDCYWYVSVSLRYLW, the amyloid nucleation score was -0.477 ± 0.31. LEWGQPHPCSGFRKCWYSDV gave an amyloid nucleation score of 0.136 ± 0.58. With TRHWVIRQVSSTRDKYTKHA the amyloid nucleation score was 0.217 ± 0.66. In the case of FVTQAGRGMHR, the amyloid nucleation score is reported as 0.682 ± 0.75. With GNRSSS the amyloid nucleation score was “inactive”. In the case of SKSLFIIGTVPDRS, the amyloid nucleation score is reported as -0.467 ± 0.52. For RVGDYGKHRW, the amyloid nucleation score was 1.31 ± 0.14. REDWSTLEPYPHYDTAIGRS gave an amyloid nucleation score of 1.24 ± 0.8. In the case of DCFYLSIGRIFFHP, the amyloid nucleation score is reported as 2.92 ± 0.21. With SYDNLRSRREGPEVVGRRAP the amyloid nucleation score was 0.569 ± 0.74. With IIISMFRGAGRIYSF the amyloid nucleation score was 0.336 ± 0.64. Work on NTREVSVRETDCCKLTCMIA yielded an amyloid nucleation score of 7.743 ± 0.043. Work on FVVGSRFMKIHVSGGDLGFF yielded an amyloid nucleation score of -0.144 ± 0.39. Work on AFKNAAGMRGMTWISSEVGA yielded an amyloid nucleation score of 0.145 ± 0.42. DFCLNGSYFNTLDNSGCSSL showed an amyloid nucleation score of -0.114 ± 0.52. In the case of LILKYAVGRRQARVVKRNSR, the amyloid nucleation score is reported as -0.575 ± 1.4. TLCERGPPMMYCKC gave an amyloid nucleation score of -0.526 ± 0.45. Substance RWEFGLRHGKSVKWSIPSLY has an amyloid nucleation score of -0.085 ± 0.95. YRDSGDRNLGIAPI showed an amyloid nucleation score of 0.449 ± 0.97. In the case of RFVLVMYMESLKMHCSLTYT, the amyloid nucleation score is reported as -0.381 ± 0.27. SILFATAFMPVGLRLNDVLS gave an amyloid nucleation score of -0.003 ± 0.46. Substance VMKLDGDPKQVFPGYSLMEG has an amyloid nucleation score of -0.092 ± 0.36. For QRMLDTLH, the amyloid nucleation score was -0.134 ± 1.7. In the case of IRMLSRSLSKMSIIFHGGKG, the amyloid nucleation score is reported as 1.33 ± 0.46. IRVLVSCVGYPFTCILKVWT gave an amyloid nucleation score of 1.18 ± 0.97. LTRSRGVSRLYIVRGVTDVW showed an amyloid nucleation score of 0.076 ± 0.43. In the case of SGKSNSKPALEYYVSFFIDL, the amyloid nucleation score is reported as -0.52 ± 0.55. LEMGDPCQYCLDLFAGYPSG showed an amyloid nucleation score of 0.549 ± 0.55. With VMKELLMTHLLSCCLYSLCL the amyloid nucleation score was 1.28 ± 0.34. For IGVKTYYTLFIGSMYFNSKG, the amyloid nucleation score was 3.22 ± 0.097. In the case of MRENIWPITCSNL, the amyloid nucleation score is reported as 2.28 ± 0.57. For DVVTSGILTASSRWYVRRGR, the amyloid nucleation score was -0.729 ± 1.2. MFSQLGVYISCFLSSSVDVE gave an amyloid nucleation score of 0.317 ± 0.48. Substance SDFQRE has an amyloid nucleation score of 3.91 ± 0.099. HLAINNADTALGSYKGQVSV gave an amyloid nucleation score of 2.36 ± 0.11. Substance SAFVDWSAGSSNDFFFF has an amyloid nucleation score of -0.577 ± 0.94. FTGRNSNMIFLSYWVCYYQN showed an amyloid nucleation score of 6.983 ± 0.05. APTRACSNGDMLREE gave an amyloid nucleation score of 1.35 ± 0.51. RKRVCSGLRSFWSFFRCLRV showed an amyloid nucleation score of -0.711 ± 2.1. For IYASLNVEICFADLPWSTWV, the amyloid nucleation score was 0.358 ± 0.81. VQWLHDMLVHFN gave an amyloid nucleation score of -0.022 ± 1. With SLSMFLLTILTCYDGFIDIW the amyloid nucleation score was -0.372 ± 0.25. IWLVQIHVSSSMPTSYPHIS gave an amyloid nucleation score of 0.355 ± 1.4. TVLFV showed an amyloid nucleation score of 0.298 ± 0.38. With GQDDYLWRRSGLDHNHSSSS the amyloid nucleation score was -0.568 ± 0.37. RVTSNEKRNYRVSRICPHLT gave an amyloid nucleation score of -0.271 ± 1. Work on LRKSWVQSKHCDIRPDSKAL yielded an amyloid nucleation score of 0.693 ± 0.68. With GHRVAGCFSMSGVG the amyloid nucleation score was 1.25 ± 0.44.
